The text below walks through data of patent US20210079074A1 (Alector, published 2021).

The chains are these.
B1: anti-MS4A4A antibody 4A-336 (antibody, human IgG1, V domains shown)
VH: QVQLVQSGSELKKPGASVKVSCKASGYIFTSYGLSWVRQAPGQGLEWMGWINTYSGVPTYAQGFTGRFVFSLDTSVSTAYLQISSLKAEDTAVYYCARSLVDYWGQGTLVTVSS
VL: DVVMTQTPLSSPVTLGQPASISCKSSQSLLYSDGKTYLSWLQQRPGQPPRRLIYLVSKLDSGVPDRFSGSGAGTDFTLKISRVEAEDVGVYYCWQGIDFHQTFGGGTKVEIK
notes: humanized 4A-21; human IgG1/kappa
B2: anti-MS4A4A antibody 4A-346 (antibody, human IgG1, V domains shown)
VH: QVQLVQSGAEVKKPGASVKVSCKASGYIFTSYGLSWVRQAPGQGLEWMGWINTYSGVPTYAQKFQGRVTMTRDTSTSTVYMELSSLRSEDTAVYYCARSLVDYWGQGTLVTVSS
VL: B1 VL with V2I, S11L, P12S, L15P, L41Y, Q42L, R44K, R50Q, R51L, A72S
notes: as for B1
B3: anti-MS4A4A antibody 4A-342 (antibody, human IgG1, V domains shown)
VH: B2 VH with V2I
VL: B1 VL with S11L, P12S, L15P, L41Y, Q42L, R44K, R50Q, A72S
notes: as for B1
B4: anti-MS4A4A antibody 4A-339 (antibody, human IgG1, V domains shown)
VH: B1 VH with A79T
VL: B1 VL
notes: as for B1
B5: anti-MS4A4A antibody 4A-344 (antibody, human IgG1, V domains shown)
VH: B2 VH
VL: B1 VL with S11L, P12S, L15P, L41Y, Q42L, R44K, R50Q, A72S
notes: as for B1
B6: anti-MS4A4A antibody 4A-343 (antibody, human IgG1, V domains shown)
VH: B2 VH with V2I, R72L, V79T
VL: B1 VL with S11L, P12S, L15P, L41Y, Q42L, R44K, R50Q, A72S
notes: as for B1
B7: anti-MS4A4A antibody 4A-338 (antibody, human IgG1, V domains shown)
VH: B1 VH with A79T
VL: B1 VL with R51L
notes: as for B1
B8: anti-MS4A4A antibody 4A-348 (antibody, human IgG1, V domains shown)
VH: B2 VH with V2I
VL: B1 VL with V2I, S11L, P12S, L15P, L41Y, Q42L, R44K, R50Q, R51L, A72S
notes: as for B1
B9: anti-MS4A4A antibody 4A-349 (antibody, human IgG1, V domains shown)
VH: B2 VH with V2I, R72L, V79T
VL: B1 VL with V2I, S11L, P12S, L15P, L41Y, Q42L, R44K, R50Q, R51L, A72S
notes: as for B1
B10: anti-MS4A4A antibody 4A-337 (antibody, human IgG1, V domains shown)
VH: B1 VH with A79T
VL: B1 VL with V2I, R51L
notes: as for B1
B11: anti-MS4A4A antibody 4A-308 (antibody, human IgG1, V domains shown)
VH: QVQLVQSGAEVKKPGASVKVSCKASGYTFTNYWMQWVRQAPGQGLEWMGATHPGHGDTRYAQKFQGRVTMTADKSTSTAYMELSSLRSEDTAVYYCAREEVYYGFRSYWYFDVWGRGTLVTVSS
VL: DIVMTQSPDSLAVSLGERATINCRASESVDNYGVSFMNWYQQKPGQPPKLLIYGASNQGSGVPDRFSGSGSGTDFTLTISSLQAEDVAVYYCQQSKEVPPTFGGGTKVEIK
notes: human IgG1/kappa
B12: anti-MS4A4A antibody 4A-309 (antibody, human IgG1, V domains shown)
VH: B11 VH with M70L, T76I, S85R, E89D, A92V
VL: EIVLTQSPATLSLSPGERATLSCRASESVDNYGVSFMNWYQQKPGQAPRLLIYGASNQGSGIPARFSGSGSGTDFTLTISSLEPEDFAVYYCQQSKEVPPTFGGGTKVEIK
notes: human IgG1/kappa
B13: anti-MS4A4A antibody 4A-301 (antibody, human IgG1, V domains shown)
VH: B11 VH with A72R, K74T, A79V
VL: B11 VL
notes: human IgG1/kappa
B14: anti-MS4A4A antibody 4A-304 (antibody, human IgG1, V domains shown)
VH: B11 VH with A72R, K74T, A79V
VL: B12 VL with A9G, A64D, S81R
notes: human IgG1/kappa
B15: anti-MS4A4A antibody 4A-352 (antibody, V domains shown)
VH: B1 VH with S99T, V101A
VL: B1 VL with T7S, S11L, Q27R, D33G, L41F, P48S, A72S
notes: full human IgG
B16: anti-MS4A4A antibody 4A-377 (antibody, V domains shown)
VH: B1 VH with L100M, V101A
VL: B1 VL with T7S, S11L, Q27R, D33G, L41F, P48S, A72S
notes: full human IgG
B17: anti-MS4A4A antibody 4A-356 (antibody, V domains shown)
VH: B1 VH with S99T, V101A
VL: B1 VL with T7S, S11L, Q27R, D33Q, L41F, P48S, A72S
notes: full human IgG
B18: anti-MS4A4A antibody 4A-354 (antibody, V domains shown)
VH: B1 VH with S99T, V101A
VL: B1 VL with T7S, S11L, Q27R, D33A, L41F, P48S, A72S
notes: full human IgG
B19: anti-MS4A4A antibody 4A-380 (antibody, V domains shown)
VH: B1 VH with L100M, V101A
VL: B1 VL with T7S, S11L, Q27R, D33S, L41F, P48S, A72S
B20: anti-MS4A4A antibody 4A-378 (antibody, V domains shown)
VH: B1 VH with L100M, V101A
VL: B1 VL with T7S, S11L, Q27R, D33E, L41F, P48S, A72S
B21: anti-MS4A4A antibody 4A-379 (antibody, V domains shown)
VH: B1 VH with L100M, V101A
VL: B1 VL with T7S, S11L, Q27R, D33A, L41F, P48S, A72S
B22: anti-MS4A4A antibody 4A-353 (antibody, V domains shown)
VH: B1 VH with S99T, V101A
VL: B1 VL with T7S, S11L, Q27R, D33E, L41F, P48S, A72S
notes: full human IgG
B23: anti-MS4A4A antibody 4A-381 (antibody, V domains shown)
VH: B1 VH with L100M, V101A
VL: B1 VL with T7S, S11L, Q27R, D33Q, L41F, P48S, A72S
B24: anti-MS4A4A antibody 4A-355 (antibody, V domains shown)
VH: B1 VH with S99T, V101A
VL: B1 VL with T7S, S11L, Q27R, D33S, L41F, P48S, A72S
notes: full human IgG

Substitutions are numbered along the chain they refer to.

The first experiment deals with T1, recombinant MS4A4A soluble polypeptide JS1.
T1 construct: also called JS1.His; loop grafted antigen
Kind of experiment: ELISA, 1 ug/ml antibody. As to the method:
(§1) Anti-MS4A4A antibodies of the present disclosure were tested for their ability to bind to the different recombinant MS4A4A soluble polypeptides, as described in Example 2, as follows. Nucleic acid encoding the VH and VL domains of humanized anti-MS4A4A antibodies of the present disclosure were cloned into pcDNA3.4 vector which contains either the human IgG1 heavy chain constant domain or human kappa constant domain. The humanized anti-MS4A4A antibodies were expressed in Expi293 cells and were purified by Mab select antibody purification resin (GE Healthcare Life Science, cat#17519902) following the manufacture's protocol. ELISA was performed to measure binding of anti-MS4A4A antibodies of the present disclosure the recombinant MS4A4A soluble polypeptides. 1 μg/ml biotinylated antigens were preincubated on the streptavidin-coated ELISA plates (Thermo Scientific, cat#PI15120) for 1 hour. Plates were washed 3 times, followed by the addition of antibodies (1 μg/ml, 0.33 μg/ml, and 0.11 μg/ml antibodies. Plates were incubated at room temperature with shaking for 1 hr, washed 3 times, then 1/2500 dilution of HRP conjugates goat anti human kappa antibodies added (SigmaAldrich cat#. A7164-1ML).
(In general: ELISA stands for enzyme-linked immunosorbent assay.)
B1: the OD450 came to 1.7.

Take B2: the OD450 was determined as 0.148.

Take B3: the OD450 was found to be 1.09.

Take B4: the OD450 amounted to 1.76.

In the case of B5, the OD450 amounted to 0.719.

Consider B6, for which the OD450 was found to be 1.37.

For B7, the OD450 was determined as 1.65.

As for B8, the OD450 is 0.131.

Take B9: the OD450 came to 0.331.

For B10, the OD450 turned out to be 1.33.

In the case of B11, the OD450 came out at 0.12.

B12: the OD450 is 0.115.

With B13, the OD450 was found to be 0.116.

Take B14: the OD450 came out at 0.11.

Another experiment deals with T2, recombinant MS4A4A soluble polypeptide JS5.
T2 construct: also called JS5.His
Kind of experiment: ELISA, 1 ug/ml antibody. The method, then: as §1
B15: the “ELISA OD” value came out at 0.985.

Turning to B16, the “ELISA OD” value worked out at 0.928.

Turning to B17, the “ELISA OD” value came out at 0.927.

As for B18, the “ELISA OD” value worked out at 0.98.

As for B19, the “ELISA OD” value worked out at 0.981.

With B20, the “ELISA OD” value was determined as 0.944.

On to B21, for which the “ELISA OD” value came out at 0.893.

Consider B22, for which the “ELISA OD” value was found to be 0.996.

For the molecule B23, the “ELISA OD” value came to 1.

For the molecule B24, the “ELISA OD” value came out at 0.961.

In a further experiment the target is T2, recombinant MS4A4A soluble polypeptide …. Kind of experiment: ELISA, 0.11 ug/ml antibody. As to the method: as §1
As to B15, the “ELISA OD” value amounted to 0.655.

Turning to B16, the “ELISA OD” value worked out at 0.577.

Take B17: the “ELISA OD” value turned out to be 0.746.

Take B18: the “ELISA OD” value amounted to 0.701.

Consider B19, for which the “ELISA OD” value was 0.654.

On to B20, for which the “ELISA OD” value came out at 0.636.

Regarding B21, the “ELISA OD” value was determined as 0.543.

Consider B22, for which the “ELISA OD” value stood at 0.63.

Take B23: the “ELISA OD” value worked out at 0.685.

As for B24, the “ELISA OD” value came to 0.721.

For a further experiment the target is unchanged. Description: ELISA, 0.33 ug/ml antibody. As to the method:
as §1
Turning to B15, the “ELISA OD” value amounted to 0.885.

For the molecule B16, the “ELISA OD” value amounted to 0.873.

For B17, the “ELISA OD” value came out at 0.85.

B18: the “ELISA OD” value was 0.874.

In the case of B19, the “ELISA OD” value is 0.916.

For B20, the “ELISA OD” value came out at 0.848.

For the molecule B21, the “ELISA OD” value amounted to 0.812.

For B22, the “ELISA OD” value was 0.85.

Take B23: the “ELISA OD” value was 0.94.

On to B24, for which the “ELISA OD” value was 0.878.

Another experiment has as its target T3, human MS4A4A (human, UniProt Q96JQ5 1-239). Kind of experiment: FACS, U937-huMS4A4A, 5 ug/ml. The method, then: (§2) Anti-MS4A4A antibodies tested were either mouse IgGs purified from hybridoma supernatant or human IgG1 Fc chimeras produced recombinantly in Expi293 cells. Affinity binding to cells was determined as follows. Briefly, cells were harvested, washed, and labeled with Aqua Live/Dead for viability discrimination. After a wash with PBS, 2×10\hat{ }4 cells were aliquoted per well in 96-well U-bottom plates and incubated with 50 μL of purified anti-MS4A4A antibody at various concentrations (3× dilutions starting at 10 μg/mL) in FACS buffer (PBS+2% FBS+1 mM EDTA). After this primary incubation, the supernatant was removed via centrifugation, washed 2× with 150 μL of ice-cold FACS buffer, and incubated with the appropriate secondary antibody on ice for 15 minutes. Following the secondary antibody incubation, the cells were again washed 2× with ice-cold FACS buffer and resuspended in a final volume of 200 μL of FACS buffer. Flow cytometry analysis was performed on a FACSCanto system (BD Biosciences). Binding data was expressed as Median Fluorescent Intensity (MFI).
(§3) These experiments were performed using anti-MS4A4A antibodies at a concentration of 5 μg/ml and were assayed for cell binding by flow cytometry.
Background: A flow cytometer gives signals particle by particle.
B1 came in with an MFI of 309.

In the case of B2, the MFI was 56.1.

In the case of B3, the MFI stood at 538.

Regarding B4, the MFI stood at 284.

On to B5, for which the MFI was 427.

In turn, B6 came in with an MFI of 513.

Turning to B7, the MFI was determined as 222.

Take B8: the MFI was determined as 47.8.

The molecule B9 yielded an MFI of 142.

In turn, B10 registered an MFI of 218.

In turn, B11 yielded an MFI of 97.2.

B12 returned an MFI of 131.

The molecule B13 had an MFI of 89.7.

In the case of B14, the MFI was 112.

Another experiment has as its target T3, human MS4A4A. Description: FACS, U937-huMS4A4A, 5 ug/ml. This is another data set of the same source. The method, then: as §2, §3
The molecule B15 registered an MFI of 11000.

For the molecule B16, the MFI came out at 12200.

B17 registered an MFI of 12000.

B18 returned an MFI of 13700.

Regarding B19, the MFI is 11800.

Molecule B20 displayed an MFI of 9910.

The molecule B21 displayed an MFI of 10600.

Regarding B22, the MFI came out at 10400.

The molecule B23 came in with an MFI of 12600.

On to B24, for which the MFI was found to be 13400.
